Data published in publication PMC3711442 (Nucleic Acids Research, 2013).

T1: GST-BsUDG R194S (Bacillus subtilis, UniProt P39615 1-225, R194S)
T1 sequence: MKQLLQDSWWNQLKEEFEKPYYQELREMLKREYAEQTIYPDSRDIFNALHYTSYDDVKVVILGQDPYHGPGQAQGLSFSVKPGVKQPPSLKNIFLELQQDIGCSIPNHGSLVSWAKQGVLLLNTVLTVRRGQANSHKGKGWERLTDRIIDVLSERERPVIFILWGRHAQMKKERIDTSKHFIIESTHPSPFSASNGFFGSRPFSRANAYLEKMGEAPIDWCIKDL

T2: GST-BsUDG S189A (Bacillus subtilis, UniProt P39615 1-225, S189A)
T2 sequence: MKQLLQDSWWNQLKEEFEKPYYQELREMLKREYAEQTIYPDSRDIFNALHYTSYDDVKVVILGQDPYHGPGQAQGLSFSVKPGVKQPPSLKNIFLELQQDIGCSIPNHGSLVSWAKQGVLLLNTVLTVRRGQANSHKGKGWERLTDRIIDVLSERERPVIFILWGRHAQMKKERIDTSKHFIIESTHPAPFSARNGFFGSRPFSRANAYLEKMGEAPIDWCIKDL

T3: GST-BsUDG, wild type (Bacillus subtilis, UniProt P39615 1-225)
T3 sequence: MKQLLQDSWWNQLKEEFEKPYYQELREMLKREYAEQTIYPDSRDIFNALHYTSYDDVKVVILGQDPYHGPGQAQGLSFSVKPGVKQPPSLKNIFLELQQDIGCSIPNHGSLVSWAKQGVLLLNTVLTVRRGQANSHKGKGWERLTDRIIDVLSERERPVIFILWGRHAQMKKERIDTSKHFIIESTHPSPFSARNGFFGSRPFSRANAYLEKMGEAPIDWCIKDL


Tests used:
Test in all cases: pull-down
[1] = biological target: T1, GST-BsUDG R194S
[2] = biological target: T2, GST-BsUDG S189A
[3] = biological target: T3, GST-BsUDG, wild type

| Binder | complexes formed relative to wild-type p56 [3] | further results |
| --- | --- | --- |
| phage ϕ29 protein p56, wild type (natural protein, Bacillus subtilis phage ϕ29) MVQNDFVDSYDVTMLLQDDDGKQYYEYHKGLSLSDFEVLYGNTADEIIKLRLDKVL |  | reduction in p56 binding relative to wild-type GST-BsUDG [1]: 75%; reduction in p56 binding relative to wild-type GST-BsUDG [2]: 84% |
| phage ϕ29 protein p56 V38E (natural protein, Bacillus subtilis phage ϕ29) MVQNDFVDSYDVTMLLQDDDGKQYYEYHKGLSLSDFEELYGNTADEIIKLRLDKVL | < 10% |  |
| phage ϕ29 protein p56 D45S (natural protein, Bacillus subtilis phage ϕ29) MVQNDFVDSYDVTMLLQDDDGKQYYEYHKGLSLSDFEVLYGNTASEIIKLRLDKVL |  | complex formation relative to wild-type p56 [3]: ~75% |
| phage ϕ29 protein p56 D45R (natural protein, Bacillus subtilis phage ϕ29) MVQNDFVDSYDVTMLLQDDDGKQYYEYHKGLSLSDFEVLYGNTAREIIKLRLDKVL | < 10% |  |
| phage ϕ29 protein p56 N42R (natural protein, Bacillus subtilis phage ϕ29) MVQNDFVDSYDVTMLLQDDDGKQYYEYHKGLSLSDFEVLYGRTADEIIKLRLDKVL | < 10% |  |
| phage ϕ29 protein p56 H28K (natural protein, Bacillus subtilis phage ϕ29) MVQNDFVDSYDVTMLLQDDDGKQYYEYKKGLSLSDFEVLYGNTADEIIKLRLDKVL | < 10% |  |
